The record followed here is patent publication US20230265183A1 (MABWELL SHANGHAI BIOSCIENCE, published 2023).

Test [1] has as its target T1, human Nectin-4 (human, UniProt Q96NY8 32-510).
T1 sequence (looked up): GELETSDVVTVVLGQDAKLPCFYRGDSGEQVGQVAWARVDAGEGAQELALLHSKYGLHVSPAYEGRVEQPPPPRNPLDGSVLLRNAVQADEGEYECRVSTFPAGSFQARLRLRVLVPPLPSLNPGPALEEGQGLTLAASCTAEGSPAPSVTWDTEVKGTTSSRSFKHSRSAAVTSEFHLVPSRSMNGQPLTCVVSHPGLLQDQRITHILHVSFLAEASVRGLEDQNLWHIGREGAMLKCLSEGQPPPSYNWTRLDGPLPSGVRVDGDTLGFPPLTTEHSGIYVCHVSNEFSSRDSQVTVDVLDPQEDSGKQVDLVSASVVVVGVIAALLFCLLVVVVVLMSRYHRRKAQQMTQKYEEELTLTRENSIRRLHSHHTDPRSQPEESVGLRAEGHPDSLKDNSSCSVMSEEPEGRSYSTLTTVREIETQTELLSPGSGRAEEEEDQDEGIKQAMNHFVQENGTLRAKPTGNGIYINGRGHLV
The test can be described thus: cell-based or functional assay.

Test [2] has as its target T1, human Nectin-4. Description: cell-based or functional assay. The source holds these as a separate data set.
The target of test [3] is T1, human Nectin-4. The test can be described thus: FACS on BT474 cells. The method, then: The solutions of different concentrations were added to 384-well plates, 10 µl per well.
BT474 cells (breast cancer cells) expressing Nectin-4 on the cell surface were collected by centrifugation at 100 g at room temperature for 5 minutes, and then the cells were washed with PBS containing 0.5% BSA once and were centrifuged at 100 g at room temperature for 5 minutes. […] After incubation at 4° C. for 1 hour, fluorescently labeled goat anti-human IgG secondary antibody was added. After continued incubation at 4° C. for 1 hour, mean fluorescence readings of the cell populations were analyzed by a flow cytometer.

In test [4] the target is T1, human Nectin-4. The test can be described thus: cell-based or functional assay. This is another data set of the same source.

Like-named read-outs stand apart in the source and are kept apart here.

B1: 20M12 hz01-E (antibody, human IgG1, kappa, V domains shown)
VH: QVQLVQSGAEVKKPGASVKVSCKASGYTFTSYYIHWVRQAPGQRLEWMGWIYPGNANNKYNENFKGRVTITRDTSASTAYMELSSLRSEDTAVYYCARSVYYFDYWGQGTLVTVSS
VL: EVVMTQSPATLSVSPGERATLSCKASQSVSNDVAWYQQKPGQAPRLLIYYASNRNTGIPARFSGSGSGTEFTLTISSLQSEDLAVYFCQQDYSSPYTFGGGTKVEIKR
modifications: vcMMAE conjugated to the TECP-reduced antibody; residues not stated; DAR 4.0±1
By EC50 is commonly meant the midpoint of the concentration-response curve. As for B1, the “Endocytosis efficiency (%)” value in the test with human Nectin-4 [1] was 56.6%. For the same molecule, in the test with human Nectin-4 [2], the “EC50 (ng/ml), inhibition of proliferation of BT474 cells” value (“EC50 (ng/ml), inhibition” for short) was determined as 24.2 ng/mL and the “Percentage of cell killing at the highest concentration” value (“Percentage of cell killing” below) was 32.2%. For the same molecule, it took 0.42 µg/mL to reach a half-maximal effect with human Nectin-4 [3] (EC50).

B2: 5M21 hz10-E (antibody, human IgG1, kappa, V domains shown)
VH: QVQLVQSGAEVKKPGASVKVSCKASGYTFTTYYIHWVRQAPGQRLEWMGWIYPGNVNTKYNEKFKGRVTITADKSASTAYMELSSLRSEDTAVYYCARGLYYFDYWGQGTLVTVSS
VL: DIQMTQSPSSLSASVGDRVTITCKASQSVSNDVAWYQQKPGKVPKLLIYYASNRYTGVPSRFSGSGSGTDFTLTISSLQPEDVATYYCQQDYSSPYTFGGGTKVEIKR
modifications: vcMMAE conjugated to the TECP-reduced antibody; residues not stated; DAR 4.0±1
As for B2, in the test with human Nectin-4 [4], the “EC50 (ng/ml), inhibition” value worked out at 21.1 ng/mL and the “Percentage of cell killing” value was determined as 29.4%.

B3: 5M21 hz11-E (antibody, human IgG1, kappa, V domains shown)
VH: QVQLVQSGAEVKKPGASVKVSCKASGYTFTTYYIHWVRQAPGQRLEWMGWIYPGNVNTKYNEKFKGRVTITADKSASTAYMELSSLRSEDTAVYYCARGLYYFDYWGQGTLVTVSS
VL: DIQMTQSPSSLSASVGDRVTITCKASQSVSNDVAWYQQKPGKVPKLLIYYASNRYTGVPSRFSGSGSGTDFTLTISSLQPEDLATYFCQQDYSSPYTFGGGTKVEIKR
modifications: vcMMAE conjugated to the TECP-reduced antibody; residues not stated; DAR 4.0±1
For B3, the “Percentage of cell killing” value in the test with human Nectin-4 [4] was 38.5%.

B4: 20M12 hz11-E (antibody, human IgG1, kappa, V domains shown)
VH: QVQLVQSGAEVKKPGASVKVSCKASGYTFTSYYIHWVRQAPGQRLEWMGWIYPGNANNKYNENFKGRVTITADKSASTAYMELSSLRSEDTAVYYCARSVYYFDYWGQGTLVTVSS
VL: EVVMTQSPATLSVSPGERATLSCKASQSVSNDVAWYQQKPGQAPRLLIYYASNRNTGIPARFSGSGSGTEFTLTISSLQSEDLAVYFCQQDYSSPYTFGGGTKVEIKR
modifications: vcMMAE conjugated to the TECP-reduced antibody; residues not stated; DAR 4.0±1
Take B4: in the test with human Nectin-4 [1], the “Endocytosis efficiency (%)” value is 58.4%. Further, in the test with human Nectin-4 [2], the “EC50 (ng/ml), inhibition” value amounted to 31.6 ng/mL and the “Percentage of cell killing” value amounted to 38.3%. This molecule also showed an EC50 with human Nectin-4 [3] of 0.232 µg/mL.

B5: 42D20 hz10-E (antibody, V domains shown)
VH: QVQLQESGPGLVKPSETLSLTCTVSGFSLIDYGVSWIRQPPGKGLEWIGVIWGDGKIYYNSVLKSRVTISKDNSKSQVSLKLSSVTAADTAVYYCAKQGGLLFYAMDYWGQGTLVTVSS
VL: DIVMTQSPDSLAVSLGERATINCKSSQSLLNSYSQKNYLAWYQQKPGQPPKLLIYFASTRESGVPDRFSGSGSGTDFTLTISSLQAEDVAVYYCQQHYNTPFTFGAGTKLELKR
modifications: vcMMAE conjugated to the TECP-reduced antibody; residues not stated; DAR 4.0±1
As to B5, in the test with human Nectin-4 [4], the “EC50 (ng/ml), inhibition” value turned out to be 2.61 ng/mL and the “Percentage of cell killing” value is 33.7%. In addition, the “Endocytosis efficiency (%)” value with human Nectin-4 [1] came out at 74%. Moreover, in the test with human Nectin-4 [2], the “EC50 (ng/ml), inhibition” value stood at 9.41 ng/mL and the “Percentage of cell killing” value amounted to 40.8%. The molecule also showed a 50% effective concentration (EC50) with human Nectin-4 [3] of 0.307 µg/mL.

B6: 42D20 hz64-E (antibody, V domains shown)
VH: QVQLQESGPGLVKPSETLSLTCTVSGFSLIDYGVSWIRQPPGKGLEWIGVIWGGGKIYYNSVLKSRVTISKDNSKSQVSLKLSSVTAADTAVYYCAKQGGLLFYAMDYWGQGTLVTVSS
VL: DIVMTQSPDSLAVSLGERATINCKSSQSLLNKYSQKNYLAWYQQKPGQPPKLLIYFASTRESGVPDRFSGSGSGTDFTLTISSLQAEDVAVYYCQQHYNTPFTFGAGTKLELKR
modifications: vcMMAE conjugated to the TECP-reduced antibody; residues not stated; DAR 4.0±1
For B6, the “Endocytosis efficiency (%)” value with human Nectin-4 [1] was 66.6%. Also, in the test with human Nectin-4 [2], the “EC50 (ng/ml), inhibition” value is 4.58 ng/mL and the “Percentage of cell killing” value was determined as 40.9%. This molecule showed an EC50 with human Nectin-4 [3] of 0.373 µg/mL.

B7: 42D20 hz44-E (antibody, V domains shown)
VH: QVQLQESGPGLVKPSETLSLTCTVSGFSLIDYGVSWIRQPPGKGLEWIGVIWGDAKIYYNSVLKSRVTISKDNSKSQVSLKLSSVTAADTAVYYCAKQGGLLFYAMDYWGQGTLVTVSS
VL: DIVMTQSPDSLAVSLGERATINCKSSQSLLNKYSQKNYLAWYQQKPGQPPKLLIYFASTRESGVPDRFSGSGSGTDFTLTISSLQAEDVAVYYCQQHYNTPFTFGAGTKLELKR
modifications: vcMMAE conjugated to the TECP-reduced antibody; residues not stated; DAR 4.0±1
On to B7, for which the “Endocytosis efficiency (%)” value with human Nectin-4 [1] came to 71.1%. In addition, in the test with human Nectin-4 [2], the “EC50 (ng/ml), inhibition” value came out at 3.61 ng/mL and the “Percentage of cell killing” value was 42.7%. This molecule displayed an EC50 with human Nectin-4 [3] of 0.504 µg/mL.

B8: 42D20 hz43-E (antibody, V domains shown)
VH: QVQLQESGPGLVKPSETLSLTCTVSGFSLIDYGVSWIRQPPGKGLEWIGVIWGDAKIYYNSVLKSRVTISKDNSKSQVSLKLSSVTAADTAVYYCAKQGGLLFYAMDYWGQGTLVTVSS
VL: DIVMTQSPDSLAVSLGERATINCKSSQSLLNTYSQKNYLAWYQQKPGQSPKLLIYFASTRESGVPDRFSGSGSETDFTLTISSLQAEDLAVYFCQQHYNTPFTFGAGTKLELKR
modifications: vcMMAE conjugated to the TECP-reduced antibody; residues not stated; DAR 4.0±1
With B8, in the test with human Nectin-4 [1], the “Endocytosis efficiency (%)” value is 68.9%. Moreover, in the test with human Nectin-4 [2], the “EC50 (ng/ml), inhibition” value came out at 6.31 ng/mL and the “Percentage of cell killing” value was determined as 42.5%. In the test with human Nectin-4 [3], this molecule yielded an EC50 of 0.43 µg/mL.

B9: 42D20 hz63-E (antibody, V domains shown)
VH: QVQLQESGPGLVKPSETLSLTCTVSGFSLIDYGVSWIRQPPGKGLEWIGVIWGGGKIYYNSVLKSRVTISKDNSKSQVSLKLSSVTAADTAVYYCAKQGGLLFYAMDYWGQGTLVTVSS
VL: DIVMTQSPDSLAVSLGERATINCKSSQSLLNTYSQKNYLAWYQQKPGQSPKLLIYFASTRESGVPDRFSGSGSETDFTLTISSLQAEDLAVYFCQQHYNTPFTFGAGTKLELKR
modifications: vcMMAE conjugated to the TECP-reduced antibody; residues not stated; DAR 4.0±1
B9: the “Endocytosis efficiency (%)” value with human Nectin-4 [1] worked out at 67.9%. Moreover, in the test with human Nectin-4 [2], the “EC50 (ng/ml), inhibition” value came to 2.42 ng/mL and the “Percentage of cell killing” value is 47%. In the test with human Nectin-4 [3], this molecule showed an EC50 of 0.299 µg/mL.

B10: 20M12 xiIgG-E (antibody, V domains shown)
VH: QVQLQQSGPELVKPGASVRISCKASGYTFTSYYIHWVKQRPGQGLEWIGWIYPGNANNKYNENFKGKATLTADKSSSTAYMQLSSLTSEDSAVYFCARSVYYFDYWGQGTTLTVSS
VL: SVVMTQTPKFLLVSAGDRVTITCKASQSVSNDVAWYQQKPGQSPKLLIYYASNRNTGVPDRFTGSGYGTDFTFNISTVQAEDLAVYFCQQDYSSPYTFGGGTKLEIKR
modifications: vcMMAE conjugated to the TECP-reduced antibody; residues not stated; DAR 4.0±1
Take B10: the “Endocytosis efficiency (%)” value with human Nectin-4 [1] was determined as 67%. In addition, in the test with human Nectin-4 [2], the “EC50 (ng/ml), inhibition” value is 14.8 ng/mL and the “Percentage of cell killing” value was found to be 41.4%. For the same molecule, in the test with human Nectin-4 [3], it took 0.227 µg/mL to reach a half-maximal effect (EC50).

B11: mIgG 5M21-E (antibody, V domains shown)
VH: QVQLQQSGPELVKPGASVRITCKASGYTFTTYYIHWVKQRPGQGLEWIGWIYPGNVNTKYNEKFKGKATLTADKSSSTAYMQLSSLTSEDSAVYFCARGLYYFDYWGQGTTLTVSS
VL: SIVMTQTPKFLLVSAGDRLTITCKASQSVSNDVAWYQQKPGQSPKLLIYYASNRYTGVPDRFTGSGYGTDFTFTISTVQAEDLAVYFCQQDYSSPYTFGGGTKLEIK
As for B11, in the test with human Nectin-4 [4], the “EC50 (ng/ml), inhibition” value stood at 3.21 ng/mL and the “Percentage of cell killing” value worked out at 36%.

B12: mIgG 42D20-E (antibody, V domains shown)
VH: QVQLKESGPGLVAPSQSLSISCTVSGFSLIDYGVSWIRQPPGKGLEWLGVIWGDGKIYYNSVLKSRLSISKDNSKSQVFLKMNSLQTDDTAMYYCAKQGGLLFYAMDYWGQGTSVTVSS
VL: DIVMTQSPSSLAMSVGQRVTMNCKSSQSLLNSYSQKNYLAWYQQKPGQSPKLLIYFASTRESGVPDRFIGSGSETDFTLTISSVQAEDLADYFCQQHYNTPFTFGSGTKLEIK
On to B12, for which, in the test with human Nectin-4 [4], the “EC50 (ng/ml), inhibition” value is 4.64 ng/mL and the “Percentage of cell killing” value came to 33.5%.
